We go through two molecules from patent US20230391862A1, “METHOD OF S[…] RESPONSE TO VECTOR-DELIVERED T[…]” (Scout Bio, Inc., priority 2020, published 2023).

The nature of series [1]: Serum level of feNGF mAb in cats by NGF-binding ELISA. The format is in vivo, cat. As to the method: The concentration of FeNGF mAb in cat serum was determined using an NGF-binding ELISA. ELISA plates were coated with 0.1 μg/ml muNGF and blocked with PBS/0.05% Tween 20/1% BSA. muNGF coated wells were incubated for 1 h at room temperature with serum diluted in PBS/0.05% Tween 20/1% BSA in the amount of 100 μl/well. FeNGF antibody concentrations ranging from 1.56 ng/ml to 100 ng/ml were used to establish a binding curve. Well plates were washed following incubation and were then incubated with a 1/10,000 dilution of goat anti-feline IgG-HRP in PBS/0.05% Tween 20/1% BSA. Plates were washed with PBS/0.05% Tween 20 and developed by the addition of 3,3′,5,5′-tetramethylbenzidine (TMB) substrate. Development was stopped by the addition of 2M H2SO4 and the absorbance read at 450 nm and background was subtracted from the resulting reading.
The concentration of feline anti-NGF mAb in cat serum was determined using an NGF-binding ELISA. […] Development was stopped by the addition of 2M H2SO4 and absorbance read at 450 nm and background was subtracted.
The concentration of feline anti-NGF mAbs in cat serum was determined using an NGF-binding ELISA. […] Development was stopped by the addition of 2M H2SO4 and absorbance read at 450 nm and background was subtracted.
Background: In an ELISA, binding on a coated surface is turned into a signal by an enzyme label.

Series [2] has as its system anti-transgene product antibody (ATPA) response, anti-(anti-feNGF mAb) antibodies. Kind of series: Bridging immunoassay for anti-transgene product antibodies (ATPA) in cat serum after IM AAV. The note with it: cats; for ATPA up to 98 days post AAV administration: mAb 2 mg/kg SC 14 days before AAV IM 2.5×10^11 gc/kg.
Method: A bridging Immunoassay with acid dissociation was used to evaluate the presence of anti-(anti-feNGF mAb) antibodies in the cat serum. Samples were pre-treated with acid to disrupt any existing ATPA-feNGF mAb complexes before assessment in the bridging assay. Samples were diluted to 2.5% in 300 mM acetic acid to enable ATPA-feNGF mAb complex dissociation before analysis. Acidified samples were incubated for 40 min with shaking at ambient temperature. 25 μl of the acidified samples were transferred to wells of a 96 well plate containing 90 μL of master-mix reagent (0.125 μg/mL of biotinylated feNGF mAb and 0.125 μg/mL of ruthenylated feNGF mAb with 1% Meso Scale Discovery (MSD) Blocker A in PBS-T) and 11 μL 1.2M Tris solution (pH 9.5). Acidified samples plus master-mix reagents were incubated at ambient temperature in the dark for 60 min with shaking. Simultaneously, Streptavidin-coated MSD plates were blocked for 60 min at ambient temperature with 200 μL/well of PBS-T buffer containing 3% (MSD) Blocker A. The Streptavidin-coated MSD plates were then washed and 25 μl of the acidified sample plus master-mix reagent were transferred to the plates which were then incubated at ambient temperature in the dark for 60-90 min with shaking. The MSD plates were washed and then 150 μL of 2×MSD Read T-Buffer was added per well before the plates were read on an MSD MESO QuickPlex SQ 120 instrument. The resulting response was recorded as Relative Light Units (RLU).
A bridging immunoassay with acid dissociation was used to evaluate the presence of anti-(anti-feNGF mAb) antibodies in the cat serum at timepoints when the circulating levels of drug were at the lowest (pre-dose). Samples were pre-treated with acid to disrupt any existing ADA-feNGF mAb complexes before assessment in the bridging assay. Briefly, samples were diluted to 2.5% in 300 mM acetic acid to enable ADA-drug complex dissociation before analysis. Acidified samples were incubated for 40 min with shaking at ambient temperature. 25 μl of the acidified samples were transferred to wells of a 96 well plate containing 90 μL of master-mix reagent (0.125 μg/mL of biotinylated feNGF mAb and 0.125 μg/mL of ruthenylated feNGF mAb with 1% Meso Scale Discovery (MSD) Blocker A in PBS-T) and 11 μL 1.2M Tris solution (pH 9.5). Acidified samples plus master-mix reagents were incubated at ambient temperature in the dark for 60 min with shaking. Simultaneously, Streptavidin-coated MSD plates were blocked for 60 min at ambient temperature with 200 μL/well of PBS-T buffer containing 3% (MSD) Blocker A.
The Streptavidin-coated MSD plates were then washed and 25 ul of the acidified sample plus master-mix reagent were transferred to the plates which were then incubated at ambient temperature in the dark for 60-90 min with shaking. The MSD plates were washed, 150 μL of 2×MSD Read T-Buffer was added per well before the plates were read on an MSD MESO QuickPlex SQ 120 instrument. The resulting response was recorded as Relative Light Units (RLU).
A bridging immunoassay with acid dissociation was used to evaluate the presence of anti-(anti-feNGF mAb) antibodies in the cat serum at timepoints when the circulating levels of drug were at the lowest (pre-dose). Samples were pre-treated with acid to disrupt any existing ADA-feNGF mAb complexes before assessment in the bridging assay. Briefly, samples were diluted to 2.5% in 300 mM acetic acid to enable ADA-drug complex dissociation before analysis. Acidified samples were incubated for 40 min with shaking at ambient temperature.

B1: feNGF mAb: recombinant purified felinized anti-NGF monoclonal antibody, clone JCV4, SEQ ID NOs: 1 and 2 (antibody, V domains shown)
VH: QVQLMESGADLVQPSESLRLTCVASGLSLTNNNVNWVRQAPGKGLEWMGGVWAGGATDYNSALKSRLTITRDTSKNTVFLQMHSLQSEDTATYYCARDGGYSSSTLYAMDAWGQGTTVTVSA
VL: DIEMTQSPLSLSATPGETVSISCRASEDIYNALAWYLQKPGRSPRLLIYNTDTLHTGVPDRFSGSGSGTDFTLKISRVQTEDVGVYFCQHYFHYPRTFGQGTKLELK
modifications: felinized anti-NGF antibody VH Sequence; felinized anti-NGF antibody VL Sequence
In the case of B1, the “expression of feNGF mAb in the serum” value in series [1] (mAb 2 mg/kg SC day −14, then AAV.CB7.feNGF IM 2.5×10^11 gc/kg day 0 (FIG. 4B)) is listed as “strong, sustained expression of feNGF mAb was observed”. Also, the “ATPA up to 98 days post AAV administration” value in series [2] (Example 7) is recorded as “no evidence of ATPA was observed”. Also, the “ATPA response after pre-treatment” value in series [2] (pre-treatment, then AAV.CB7.feNGF IM 2.5×10^11 gc/kg at day 0 (FIG. 4E-4H)) is recorded as “no ATPA response was observed”.

B2: fNGFV5_1 mAb: purified felinized anti-NGF monoclonal antibody, clone V5_1, SEQ ID NOs: 2 and 5 (antibody, V domains shown)
VL: DIEMTQSPLSLSATPGETVSISCRASEDIYNALAWYLQKPGRSPRLLIYNTDTLHTGVPDRFSGSGSGTDFTLKISRVQTEDVGVYFCQHYFHYPRTFGQGTKLELK
VH: QVQLVESGGDLVQPGGSLRLTCVASGFSLTNNNVNWVRQAPGKGLEWMGGVWAGGATDYNSAVKSRLTITRDTSKNTVFLQMHSLQSEDTATYYCARDGGYSSSTLYAMDAWGQGTTVTVSA
modifications: felinized anti-NGF antibody VL Sequence; felinized anti-NGF antibody (V5_1) VH Sequence
As for B2, in series [1] (Example 8, high dose (1×10^13 gc/cat) cohort, the animal with ATPA response), the detectable serum antibody result is given as “sudden loss in detectable serum antibody”. Also, the “ATPA signal following the recombinant mAb administration” value in series [2] (Example 7, V5_1 pre-treatment group, did not persist, did not affect transgene expression (FIG. 10F)) is listed as “low, transient ATPA signal was observed in one animal”. Moreover, the “ATPA up to 98 days post AAV administration” value in series [2] (Example 7) is on record as “no evidence of ATPA was observed”. Further, the “treatment induced ATPA response” value in series [2] (Example 8, mAb 2 mg/kg SC day −14, then high dose of AAV (1×10^13 gc/cat)) is listed as “A single treatment induced ATPA response was observed”. Also, in series [2] (Example 8, mAb 2 mg/kg SC day −14, then medium dose of AAV (1×10^12 gc/cat)), the “treatment-emergent immunogenicity up to 56 days post AAV administration” value is “no evidence of treatment-emergent immunogenicity was observed”.
